{
  "source": "patent US11479582B2",
  "about": "(KING FAISAL UNIVERSITY, dated 2022)",
  "target": "SARS-CoV-2 spike (S) protein, expressed from a synthetic S gene (SARS-CoV-2, UniProt P0DTC2)",
  "experiment": "cell-based or functional assay",
  "data": [
    {"binder": "HVLGDISGINASVVQIQKEIDRLNEVAKNLHESLIYLQE", "note": "[peptide #121 (mutated HR2 39-mer, 'Highest Affinity')]", "values": [
      {"measurement": "IC50, SARS-CoV-2 Spike-mediated cell-cell fusion", "value": 720, "unit": "nM"},
      {"measurement": "IC50, SARS-CoV-2 pseudovirus infection in Calu-3 cells", "value": 160, "unit": "nM"},
      {"measurement": "IC50, SARS-CoV-2 pseudovirus infection in VeroE6", "value": "> 10000", "unit": "nM"},
      {"measurement": "IC50, TMPRSS2-dependent plasma membrane pathway in VeroE6-TMPRSS2", "value": "< 1000", "unit": "nM"}
    ]}
  ]
}
